Reference: the supplement of paper PMC11865577

Columns and labels:
Experiment in all cases: pull-down binding Z-score (relative to library population); higher = stronger binding
Conditions in all cases: RNA library: Library-2
[1] = test system: TO-N3-2 (biotin conjugate)
In short: (§1)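 Streptavidin beads bearing 100 pmol of a biotin-conjugated small molecule were incubated for 60 min at 25 °C with 1 μg of heat-folded, Cy5- or Cy3-end-labelled RNA library in phosphate/NaCl/KCl buffer. Hot SDS eluted the RNA that stayed bound after three washes, and this RNA was hybridised for 20 h at 55.5 °C to a DNA barcode microarray. Binding was expressed as a Z-score against the library mean and standard deviation, after subtraction of a beads-only signal and trimmed averaging of barcoded replicate probes.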

[2] = test system: TO-3-N3-2 (biotin conjugate)
In short: as §1

TO-N3 (biotin conjugate) = test system: TO-N3 (biotin conjugate)
In short: as §1

[3] = test system: TO-3-N3 (biotin conjugate)
In short: as §1

Sequence | pull-down binding Z-score [1] | pull-down binding Z-score [2] | pull-down binding Z-score (TO-N3 (biotin conjugate)) | pull-down binding Z-score [3]
GUCCUAUUACGGAU | -1.55 | -0.505 | -1.37 | -0.9
AUGUUUGUCAAACAUAAGCAU [DMSMaPseq_invitro_SARS-CoV-2_Motif_200] | -0.806 | -0.54 | -0.873 | -0.651
AUUUUUCUAAACUGAUAAAU [DMSMaPseq_invitro_SARS-CoV-2_Motif_131] | -1.08 | -0.194 | -0.771 | -0.374
ACAGCAGAGUGCUGU [IAV_invivo_M1_M2_7_Motif_17+IAV_invivo_M1_M2_7_Motif_17] | -1.37 | -0.794 | -0.887 | -0.599
UGUACUUGGAUUGGCUGCAAUCAUGCAAUUGUUUUUCAGCUAUUUUGCAGUACA [SHAPE_invivo_SARS-CoV-2_Motif_149] | -0.907 | -0.559 | -0.78 | -0.482
GCAAAUUGCACAAUUUGC | -0.158 | 0.661 | 0.0548 | 0.165
CCUUAUAAUUCACAGAAUGCUGUAGCCUCAAAGAUUUUGGGACUACCAACUCAAACUGUUGAUUCAUCACAGG [DMSMaPseq_invitro_SARS-CoV-2_Motif_319] | 0.0157 | -0.324 | -0.341 | -0.541
CCACUUGGCUAUGUAACACAUGGCUUAAAUUUGG [DMSMaPseq_invitro_SARS-CoV-2_Motif_85] | -0.575 | -0.0708 | 0.127 | 0.386
GACUCAUUCAAGGAGGAGUU [SHAPE_invivo_SARS-CoV-2_Motif_469] | -0.297 | -0.149 | 0.111 | 0.25
AUUCUGAAGUUGUUCUUAAAAAGUUGAAGAAGUCUUUGAAU [DMSMaPseq_invitro_SARS-CoV-2_Motif_213] | -0.353 | -0.324 | -1.03 | -0.963
GCGCUACUGCAACGAUACCGAUACAAGCCUCACUCCCUUUCGGAUGGCUUAUUGUUGGCGUUGCACUUCUUGCUGUUUUUCAGAGCGC | 0.285 | 0.232 | -0.282 | -0.679
GCAUUGAUUUAGAUGAGUGGAGUAUGGCUACAUACUACUUAUUUGAUGAGUCUGGUGAGUUUAAAUUGGCUUCACAUAUGU | 0.256 | -0.04 | 0.0261 | -0.215
UAGGUGUUUUAAUGUCUAAUUUAGGCAUGCCUUCUUACUGUACUGGUUACAGAGAAGGCUAUUUGAACUCUA | -0.982 | -0.358 | -0.806 | -0.861
GACCCUAAGACUAAAAAUGUUACAAAAGAAAAUGACUCUAAAGAGGGUUUUUUCACUUACAUUUGUGGGUU | -0.519 | 0.101 | -0.227 | -0.131
GCGCUGCCAGAAACUGGCUUAAGCGC [bulge-UUA] | -0.601 | -0.252 | -0.128 | 0.176
CACUAAAAAGUGGAAAUACCCACAAGUUAAUG | -0.609 | -0.22 | -0.552 | -0.634
AUGGUAAGUGCGAUACUUACCUG [U1snRNP5ss-24] | 0.974 | -0.139 | -0.213 | -0.32
ACAGACUUCAUUAAGAUGUGGUGCUUGCAUACGUAGACCAUUCUUAUGUUGUAAAUGCUGUUACGACCAUGUCAUAUCAACAUCACAUAAAUUAGUCUUGUCUGU | -0.489 | -0.127 | -0.512 | -0.753
GCGCUGCCAGAAACUGGCUCAGCGC [bulge-UC] | -0.361 | -0.576 | -0.584 | -0.319
UCUAUUAAAAUAUAAUGA [DMSMaPseq_invitro_SARS-CoV-2_Motif_395] | -0.693 | -0.157 | -0.185 | -0.0176
GUUCUAAGUAUUGCUCCAAUAAUGUUCUCAAACAAAAUGGCGAGACUGGGAAAAGGGUAUAUGUUUGAGAGCAAGAGUAUGAAACUUAGAAC [IAV_invivo_PB1_2_Motif_18+IAV_invivo_PB1_2_Motif_18] | 1.25 | 0.578 | 1.12 | 0.629
UGCAGAUUCAACUUUGAUUGGUGAUUGUGCA | -0.565 | 0.191 | 0.273 | 0.338
CUCAAACCCGUCCUUGAUUGGCUUGAAGAGAAGUUUAAGGAAGGUGUAGAG [DMSMaPseq_invitro_SARS-CoV-2_Motif_41] | -0.0884 | -0.174 | -0.455 | -0.564

Sequence | pull-down binding Z-score [1] | pull-down binding Z-score [2] | pull-down binding Z-score (TO-N3 (biotin conjugate)) | pull-down binding Z-score [3]
CCUAAAGUGAAGUAUUUAUACUUUAUUAAAGG [DMSMaPseq_invitro_SARS-CoV-2_Motif_232] | -0.916 | -0.181 | 0.411 | 0.463
UGACGAUGCUGUUGUGUGUUUCAAUAGCACUUAUGCAUCUCA [SHAPE_invitro_SARS-CoV-2_Motif_289] | -0.71 | -0.0833 | 1.01 | 1.24
GCCGGAUCAGACCGAGUGAUGGUAUCACCACUGGC [IAV_invivo_PB2_1_Motif_5+IAV_invivo_PB2_1_Motif_5] | 0.505 | -0.146 | -0.143 | -0.361
GUGUAAAAGUGCCUUUUACAU | -0.872 | -0.646 | -0.957 | -0.525
GCAGUUAAAAUGUUUGAUGCUUACGUUAAUACGUUUUCAUCAACUUUUAACGU | -1.09 | -0.145 | -1.37 | -1.09
GCAGAGACAGAAGAAACAGCAAACUGUGACUCUUCUUCCUGC | 0.0897 | -0.128 | -0.156 | -0.211
GUCUCCUACUAAAUUAAAUGAUCUCUGCUUUACUAAUGUCUAUGCAGAUUCAUUUGUAAUUAGAGGUGAU | -0.628 | -0.285 | -0.922 | -0.707
CCCAAUCAUGAAGGG [IAV_invivo_PB1_2_Motif_24+IAV_invivo_PB1_2_Motif_24] | -0.373 | -0.407 | -0.488 | -0.131
UGUGGUAAACAAGCUACA | -0.906 | -0.468 | -0.766 | -0.644
GAAGUCACACCUUC [SHAPE_invitro_SARS-CoV-2_Motif_534] | -0.517 | -0.725 | -0.137 | 0.0219
CCUGCACCACGCACAUUGCUAACUAAGG [SHAPE_invitro_SARS-CoV-2_Motif_318] | 0.0122 | -0.173 | -0.204 | -0.429
GCGCUGCCAGAAACUGGCCAGCGC [bulge-C] | -0.547 | -0.512 | -0.667 | -0.488
GAGGGGUGUAUACUGCUGCCGUGAACAUGAGCAUGAAAUUGCUUGGUACACGGAACGUUCUGAAAAGAGCUAUGAAUUGCAGACACCUUUU | 0.475 | -0.11 | -0.034 | -0.406
UCUGACAGUCCAUGUGAGUCUCAUGGAAAACAAGUAGUGUCAGA [SHAPE_invivo_SARS-CoV-2_Motif_364] | -0.73 | -0.0689 | -0.868 | -0.582
CAGGUACAGUAGAUACUUACCUG [U1snRNP5ss-19] | -1.09 | -0.722 | -0.984 | -0.605
UGAUGCGUAUUAUGACAUGGUUGGAUAUGGUUGAUACUAGUUUGUCUGGUUUUAAGCUAAAAGACUGUGUUAUGUAUGCAUCA | -0.569 | -0.285 | -0.861 | -0.867
CCAUUUCAUCUUUUAAAUGG | -0.946 | -0.38 | -0.985 | -0.598
GCCGAAUACCAUAAUGAAUCUGGC [SHAPE_invitro_SARS-CoV-2_Motif_29] | -0.0249 | -0.529 | -0.479 | -0.597
CAGGCAAUAACAGUUACACCGGAAGCCAAUAUGGAUCAAGAAUCCUUUGGUGGUGCAUCGUGUUGUCUG [SHAPE_invivo_SARS-CoV-2_Motif_250] | 0.779 | 0.619 | 1.2 | 0.944
GGUUCGUGUCUUUAGCUAUAGAUGCUUACC | -0.066 | 0.206 | 0.913 | 0.877
CUCCAGGAGGGG [IAV_invivo_PB2_1_Motif_10+IAV_invivo_PB2_1_Motif_10] | -0.309 | -0.312 | -0.668 | -0.481
UAAAGCCACGUAUAAACCAAAUACCUGGUGUAUACGUUGUCUUUG | -0.691 | -0.279 | -0.75 | -0.523
UCACACUAAAAAGUGGA | -1.15 | -0.477 | -1.1 | -0.691

Sequence | pull-down binding Z-score [1] | pull-down binding Z-score [2] | pull-down binding Z-score (TO-N3 (biotin conjugate)) | pull-down binding Z-score [3]
CUUCUUGAAAUACUCCAAAAAGAGAAAGUCAACAUCAAUAUUGUUGGUGACUUUAAACUUAAUGAAG | -0.596 | -0.0464 | -0.0282 | 0.115
GUUUCUGCCUUUCCAACAAUUUGGCAGAGAC | -0.994 | -0.306 | -0.868 | -0.615
GCCCCAUUCCUUGAUCGGCUUCGCCGAGAUCAGAAAUCCCUAAGAGGAAGGGGC [IAV_invivo_NS1_NEP_8_Motif_3+IAV_invivo_NS1_NEP_8_Motif_3] | 0.181 | -0.223 | -0.849 | -0.845
CUGUCCAAGACAUGUGAUCUGCACCUCUGAAGACAUGCUUAACCCUAAUUAUGAAGAUUUACUCAUUCGUAAGUCUAAUCAUAAUUUCUUGGUACAG | -0.0124 | -0.739 | -0.347 | -0.274
GGGAAGAACACC [IAV_invivo_M1_M2_7_Motif_3+IAV_invivo_M1_M2_7_Motif_3] | -0.0552 | 5.36e-05 | 0.899 | 1.13
GUGCACUUGACCCUCUCUCAGAAACAAAGUGUAC [SHAPE_invivo_SARS-CoV-2_Motif_422] | -0.312 | -0.137 | 0.229 | 0.278
AUGCUGACGAUGGUCAUUUUGUCAGCAU [IAV_invivo_M1_M2_7_Motif_18+IAV_invivo_M1_M2_7_Motif_18] | -0.84 | 0.337 | -0.322 | 0.0275
UGGUAAUGCUGCUAUCAGCGAUUAUGACUACUAUCGUUAUAAUCUACCA | -0.119 | -0.385 | -1.09 | -0.937
GGACAAUUCACCUAAUUUAGCAUGGCCUCUUAUUGUAACAGCUUUAAGGGCCAAUUCUGCUGUCAAAUUACAGAAUAAUGAGCUUAGUCC | -0.485 | -0.176 | -0.563 | -0.496
GAUGGCACUUGUGGCUUAGUAGAAGUUGAAAAAGGCGUUUUGCCUCAACUUGAACAGCCCUAUGUGUUCAUC | 0.432 | -0.0725 | -0.48 | -0.665
UCUCUAAUGAGA | -1.53 | -0.652 | -1.38 | -0.823
UACCAUUUAAUGAUGGUG | -1.03 | -0.21 | -0.0588 | 0.115
GGGUAGGGUUUGGGGGAGAGCGUGGGCUGGGGUUCAGGGACA [pre-miRNA-1229_WT_FL] | 5.13 | 8.09 | 6.62 | 7.43
CAUUACUUUAUGAUG [SHAPE_invitro_SARS-CoV-2_Motif_468] | -1.02 | -0.259 | -0.055 | 0.168
CUGUUGGUACCAAUUUACCUUUACAGCUAGGUUUUUCUACAGGUGUUAACCUAGUUGCUGUACCUACAG | -1.02 | -0.514 | -1.16 | -0.959
AUUCUAUUCUAUUCUAUUCU [r(AUUCU)4] | -0.629 | -0.0109 | 1.03 | 1.33
GCGCCGCCAGAAACUGGCAGCGC [mismatch-CA] | -1.05 | -0.524 | 0.225 | 0.381
GUCACACCUUCGGGAACGUGGUUGAC | 0.518 | -0.338 | -0.0943 | -0.558
AACUACUAUUCAAACAAUUGUUGAGGUUCAACCUCAAUUAGAGAUGGAACUUACACCAGUUGUUCAGACUAUUGAAGUGAAUAGUUUUAGUGGUU | -0.981 | -0.609 | -0.383 | -0.295
AGUUUACGCCCUGACACACGUUAUGUGCUCAUGGAUGGCU | -0.321 | -0.516 | -0.719 | -0.721
GAUGCUGUUGUGUGUUUCAAUAGCACUUAUGCAUC | -0.931 | -0.542 | -0.937 | -0.907
